Reference: article PMC7897507

Columns and labels:
[1] = tested on: EcSSB H55Y (Escherichia coli); assay: optical tweezers; conditions: 5 nM monomeric H55Y, k-b/kb, 12 pN, 50 mM Na+, 10 mM HEPES pH 7.5, room temperature, ssDNA at 12 pN unless stated, Mg2+ buffer adds 4 mM Mg2+, AFM 10 mM Na+, 10 mM Mg2+
[2] = tested on: EcSSB WT (Escherichia coli); assay: optical tweezers; conditions: 12 pN, 50 mM Na+, 10 mM HEPES pH 7.5, room temperature, ssDNA at 12 pN unless stated, Mg2+ buffer adds 4 mM Mg2+, AFM 10 mM Na+, 10 mM Mg2+

8.1 knt ssDNA (pBACgus11)
Kd [1]: 0.1 nM
Kd ([2]; EcSSB8 mode, fit of equilibrium fractions (Fig. 2C)): 0.04 nM
Kd ([2]; single-domain unwrapped EcSSB8 mode, from k-b/kb): 0.08 nM
